19 sequences from a protein production outcome set (Wang et al. 2014) can be followed below.

This series in a line: label from the status in PepcDB records.

As for “MSETDLLLKMVRQPVKLYSVATLFHEFSEVITKLEHSVQKEPTSLLSEENWHKQFLKFAQALPAHGSASWLNLDDALQAVVGNSRSAFLHQLIAKLKSRHLQVLELNKIGSEPLDLSNLPAPFYVLLPESFAARITLLVQDKALPYVRVSFEYWHA”, the protein production result is given as “not failed”.
As for “MSEWMKKSPLEWEDYVYKEVRVIACEKEYKGWLLTTDPVSANIVLVNFLEDGRLSVTGIMGHSVQTVETISEGDHRVREKLMHVFASGDCKGYSPEDLEEKRTSLKKWLEKNHIPVTEQGDAQRTLCVAGVLTIDPPYAPENCSSSNEIILSRIQDLIQGHLSASQ”, the entry is “failed”; as for “MSEYLPGIIWLVVLLVVNAFFVGAEFAVISARRSQIEPKAEAGSKAAKTTLWAMEHATLMLATSQLGITVCSLVILNVSEPAIHHLLEIPLGLTSLSGEAIGIIAFVAALLLVTFLHVVLGEMVPKNISFSVPTRAALILAPPLVMVARILKPVIWTLNGIANSILRLFKVEPKDEATSAYTLDEVANIVEQSTRDGMLSDTSGTLTAAFEFTSKTVADVEVPIGEMVLLPATSTPADIQRAVAEHGYSRYILTDDDGTPTGYLHLKDVMDLTTREKFDQPVPAKRIRKLASAYSGSELEDALATMRRSGAHVARVFDAAGNTTGVLFLEDIIEELVGEVQDATST”, “not failed”; as for “MSFADLGLSDKVLQAVTTAGYTEPTPIQAQAIPHVLARRDVLGIAQTGTGKTAAFTLPMLTMLETGRARARMPRTLILEPTRELAAQVEENFERYGTNHKLNVALIIGGVSFADQDAKLTRGTDVLIATPGRLLDHFERGKLLLTGVELLVIDEADRMLDMGFIPDIERIVKMVPFTRQTLFFSATMPPEIERLADMFLHNPQRVEVARPASTATTIEQRLVATGAEGHEKRKVLRHLIRSASELQNGIIFCNRKRDVAQLQRSLTSHGFNAAALHGDMDQRARMAALDGFRSGEVPLLVASDVAARGLDIPAVSHVFNFDVPHHPEDYVHRIGRTGRAGRSGQAFTLASRSDERSLSAIESLIGQPIAWLDGDLASVSDEVEGDEPRRRRGSRRAKETKGGEETKSGGRSTERSAAPASESPRSENRSRGGRRPAAERSRADAPRRDPVREPEPVAVVPSAPPAPPRELAREPVRSAPERARGERRPPRRDEDGETPVGLGSHVPAFLLKPTGFGKSK”, “failed”.
On to “MSFAIEALGQGRFDEVEILCREILKEVPDHFHATHLLGLRAFDGGWLEDAQFLLERAVALDPRSPDAHGNLGAVYFALERFKDARACQEKAIALKPNCPITLTNLGNTLLHLGLAKEAIELHERAIRLKPNYADAFCNRGMAELMIGQFERAGVDFDRALSFQPRHAEAIAGKAMVSLELRHFEAAEAAFEASLALKPGSPRILVQRGRLHLTLYRLEQAAADFDAALAQSPRNELALCWRAQVDIMVRNTAGAMAGVKTLLEVNPQSEAGMSLLASCHANQGDIATALEYLDAALAIAPDFPEAIGYKIFVLDYLPEADFVVQQAARKYWWDQIGAKLPQRTLSPRDLDPDRRIVIGYVASEFRQHSAAYTLLPVMRHHDHAKFKIVCYSCWPLQDGMTEKFKACADVWVEAAQFSDDELADRIQADGIDILIDVSGHTTGSRLHVFSRKPAPIQVTGFGHATGTGLQTMDYVLADPIFIPQSARHLLAEKVYDLPSLITIDPIQDVPPSELPMLRNGYVTFGVFNRILKISDEAIRVWSKVMREVAGSKIIIKNGLLDDPMLRDGLIARFVAQGIAEENVICMGSTSRREHLRAFANVDISLDTFPQNGGISTWESLYAGVPVVAKLGNGSSSRAGGSIVAAVGLGDWVADDDEGYAAIACKFAAQPAHLAKLRADLPAQIANSPAGNVEIYTREVEAGYRQFWRDYCAEASETCDVA”, for which the protein production entry is given as “failed”.
With “MSFDPIYFLTPIIVMVFSFGMVYKLVKSIKVLMFSALAYFIAIVLKVLVQFFTLGYLASINSLAVLGLYYGLQTSIFEVGLAYVFALLGKLKNGWGYGVSLAMWENGVLISIPTLFIYIAYYFFPLILSTPSQLEYPITQALPLIGLSILERVSSLLIHSSWGYLSVLSVITGRKRLILVAFPMGFVDFLVPFEKYLGILTFEFIFFCIGLICLVMAWSLGKYYRSTSSKDT”, the protein production result is recorded as “failed”.
With “MSFDRNLCKVLVADDSRLVTSSVTAILRQLDLSDIYYAYKPFEVINLCKQMHFDLVICDYNFQTQLNGFQLLEELKHAQILPAHTTFVFLTGENDHKIVRSIVDCDPDDYLLKPFNHTFFRNRLLSAMKRRSVLLPIYEKLREMDFEGVIEATDTLLPFHPEYSKLIRRYRAHAMVQNKQFSSARSEYEKLLKEDNFDWIKTALANTLIETDNLEKAQEVLESLSSKKENPYYHDEMSNMAVLSEDIPKAIKHLKQSTMLLDAGSERELVITNLSLASESYDDAVTYIKRYYEKNENTFRGGIFTKLNFVRCHLYRSLNAPSNQCFENLLFGLNPLIGEIEKNSQFKAQFALIDAHIALIRGDLKAAISQVRAVLASNQLSHFYDLYHLCVLLERCSFLSEMKSMLPRARRAIAEAQHPSIFRSQVHMLKSLEMRLQESQTKIEQIRRQITAQKSISTSAITPHFDRYFQLHDLLPHSKKICLAIVRLASLRPFEYRGEYAIYRKLEHCDRVIRNLCDNRELQSIKYNNMYQYAKQNITVSNG”, the protein production result is given as “failed”.
Next, “MSFLKPKTHIEKGDVVILYLSVSSMHAIEAVPEIVNKKGETIPHIFQTNYGSLKVENIIGVEYGSKVELSKGWAHVLQPTPELWTQTLPHRTQIIYTPDISMIIHQLEVRPGAVVVESGTGSGSLSHYFLRALKPTGHLHTFDFHEARADQARDEFRRHGIADFVTVYHRDVCNLGFGAELDGKADAVFLDLPAPDLAVPHAFKALKLSGGRFCSFSPCIEQSQRCIQELTKLGFNEIVSLEVLQQENVVKTRTLPVIDLEFLKLPKTDETTAATNALESKAPKEVKKYLTSSNPQTLPGHTGFLTFATLPPNIPKA”: “failed”.
On to “MSFRTGERRIWDATATLEALGAADVALWIWEPETDRLRLNGAARALGLGPLAPECSSAAFRALALPQDRAQAEEVLKPREPGSEVVARFRVRGGETCLWRGVWLEEGVRAAGVVAPETKFSASELCDLTGLLDRRSFLARARERLAQEGTHQLVVADLDRLRRLNEALGHERADLVLAALGSRLAAAFPAQSILGRIGEDEFAVLCQPLGYEPSDVLRSALEQPLRVAGFDIHPTLSIGAVSAEGGLDAPDAAELLRRAELAVEAAAAAGRGGAAAYGRAMETDGLSRLALEADLRGAIGRGEITPYFQPIVRLSTGALSGFEALARWIHPRRGMLPPDEFLPLIEEMGLMSELGAHMMHAAAQQLSTWRAAHPAMGNLTVSVNLSTGEIDRPGLVADVAETLRVNRLPRGALKLEVTESDIMRDPERAAVILKTLRDAGAGLALDDFGTGFSSLSYLTRLPFDTLKIDRYFVRTMGNNAGSAKIVRSVVKLGQDLDLEVVAEGVENAEMAHALQSLGCDYGQGFGYAPALSPQEAEVYLNEAYVDGAAPVKARG”, for which the protein production result is listed as “failed”.
As for “MSFSADALEGGLSSLKLAADKYRSILNDEKTGNIRWRYGGPPIFDTVNKLFEEERTHVQWRYDNPPDFNSVNQLFEEGQTKVWPEGSLEETVQNAIKSWEMEFSHKIRLQDFKTINPEKFKLFVNGREGLSAEETLRLGSYNALLKNSLPEEFQYYKPEEESFESSHDAFRSALPRGFAWEILSVYSGPPVIAFKFRHWGYFEGTFKGHAPTGEMVQFLGLGVLKVDESLRAEEIEIYYDPGELFGGLLKGPPISETKTTDSGDNTAEKQSCPFTH”, the entry is “failed”; as for “MSFSDSESSSHGGGGGDYKFFRQISRDRLLHEMLGSTKTGDSKAWKILIMDRVTVKVMSQSCKMADITDQGISLVEELFKRREPMPGMDAIYFIQPSKENIVMFLSDMSGREPLYRKAFIFFSSTIPKELVNHIKSDSSVLPRIGALREMNMEYFPIDNQGFLTDHEQALETLYAEDAENSRHFHICLNIMATRIATVFASLKELPFVRYRAAKSTASRDLVPSKLAAAIWDCISKYKAIPNFPQTETCELLIVDRSVDQVLRLIYYIYSSSPY”, “failed”.
On to “MSFSLWLLVLGCILLTLGLASAYLRLLPVSTSFIYLLFGLAIGPAGLHAWRSGLADISGWFEHLSEAALLISLFIGGLKLRLPLRSPAWTAAWLLAGPVLLGCILGLTLGAHFLFGLDWGLALLVAAILAPTDPVLASDIQVNHAGDDDRLRYAVSGEAGLNDGIAFPFVIAALLLIGQGGGLPGEFDRSGLDWLLRDVLWAIPLGLLVGYCLGHGLGRLAIHLRARHTDTSVSANDFLALALIALSYVGADALGGWGFLASFAAGIGLRHAEVATLGRASAPAEAQAAAADVREAGQASGAIEYGADRSEHPKVAAGAVMLDVLSFGNLLERSLEVLLVTLLGAMLYQHWDWRALPLALLLFCVCRPAMVWLLVGRRLMHPAQRRLLGWFGIRGIGSLYYLSYALNQGLPTALAHTASDLVLSLVALSICVHGLSIQPLLMRHARSVSRRDRE”, for which the protein production result is “failed”.
Consider “MSFVAGVIRRLDETVVNRIAAGEVIQRPANAIKEMIENCLDAKSTSIQVIVKEGGLKLIQIQDNGTGIRKEDLDIVCERFTTSKLQSFEDLASISTYGFRGEALASISHVAHVTITTKTADGKCAYRASYSDGKLKAPPKPCAGNQGTQITVEDLFYNIATRRKALKNPSEEYGKILEVVGRYSVHNAGISFSVKKQGETVADVRTLPNASTVDNIRSIFGNAVSRELIEIGCEDKTLAFKMNGYISNANYSVKKCIFLLFINHRLVESTSLRKAIETVYAAYLPKNTHPFLYLSLEISPQNVDVNVHPTKHEVHFLHEESILERVQQHIESKLLGSNSSRMYFTQTLLPGLAGPSGEMVK”, for which the protein production result is on record as “failed”.
Consider “MSGAGKKIADVAFKASRTIDWDGMAKVLVTDEARREFSNLRRAFDEVNTQLQTKFSQEPEPIDWDYYRKGIGAGIVDKYKEAYDSIEIPKYVDKVTPEYKPKFDALLVELKEAEQKSLKESERLEKEIADVQEISKKLSTMTADEYFEKHPELKKKFDDEIRNDNWGY”, for which the protein production result is recorded as “failed”.
Next, “MSGDEAVAAPVVPPVAEAAVIPEDMDVSTALELTVRKSRAYGGVVRGLHESAKLIEKRNAQLCVLAEDCNQPDYVKLVKALCADHSIKLLTVPSAKTLGEWAGLCKIDSEGNARKVVGCSCLVIKDFGEETTALNIVKKHLDSN”: “failed”; “MSGDFDTIRDASSPDEVQLVRLLEEKIKSLQIEIENLRKELNYYKAEMEKMLSPPLIEAVVLDVLPDGRVLVRSSSGPNLVVNIASHIDQKLIKPGISVALNQRGSTILEVLPQKE”: “not failed”; “MSGGQQERHVLILNTVGGRRAIALEAAAYSLGRDESNAIVIDFETVSRQHAILLRVPVPGTTSYRYRLVDGNANGKPSTNGTFVNGKRISSHELQHGDVILFGRKAKASYLLLSMADTEFSQYLQSIAFQSIKSDLRGAKETLVGMELSGELRRTPNRELEHHHHHH”: “not failed”.
Regarding “MSGKNEADSKDTGWEQIKDKGKIVVATSGTLYPTSYHDTDSGSDKLTGYEVEVVREAAKRLGLKVEFKEMGIDGMLTAVNSGQVDAAANDIDVTKDREEKFAFSTPYKYSYGTAIVRKDDLSGIKTLKDLKGKKAAGAATTVYMEVARKYGAKEVIYDNATNEQYLKDVANGRTDVILNDYYLQTLALAAFPDLNITIHPDIKYMPNKQALVMKKSNAALQKKMNEALKEMSKDGSLTKLSKQFFNKADVSKKIDADVQDVDLLEHHHHHH”, the protein production result is given as “not failed”.
Next, “MSGKSSPLSVLEYLAIFAIIMTWGINNAAAKVATAYLPPMTVGGLRFLAALVFLFPFIRPPFPEPKKLAAIVLLTGPIHFGLVYVGFGMGQSLSPLVVASQLWIPFTALVAWKLLGETMRLPAVLGLIVAFVGVAWMTLDPHTSGDLPAIVLIVLASACWAVATILVRMTPGAKPLKVQAVTALFAAPSLLAMSFAFETQVVERVMTAPPIAWACVIFAGVVSTIGASALLFWLVQRREAGRVTPYFLLTPLVSCTLGVAFLGDKLTPQLLIGGAATMVGVALVAMTEKRARAEEALAETA”: “failed”.
